Test results reported in paper PMC12087824.

Experiments:
[1] = molecular target: human IL-2 receptor chain beta (IL-2Rβ, CD122) (human) (UniProt P14784)
[2] = molecular target: human IL-2 receptor chain beta (IL-2Rβ, CD122) (human) (UniProt P14784); experiment: BLI; human IL-2Rβ immobilised; Neo-2/15 WT at 20–2.5 nM

Chain of human IL-2 receptor chain beta (IL-2Rβ, CD122) (human) (P14784 27-551): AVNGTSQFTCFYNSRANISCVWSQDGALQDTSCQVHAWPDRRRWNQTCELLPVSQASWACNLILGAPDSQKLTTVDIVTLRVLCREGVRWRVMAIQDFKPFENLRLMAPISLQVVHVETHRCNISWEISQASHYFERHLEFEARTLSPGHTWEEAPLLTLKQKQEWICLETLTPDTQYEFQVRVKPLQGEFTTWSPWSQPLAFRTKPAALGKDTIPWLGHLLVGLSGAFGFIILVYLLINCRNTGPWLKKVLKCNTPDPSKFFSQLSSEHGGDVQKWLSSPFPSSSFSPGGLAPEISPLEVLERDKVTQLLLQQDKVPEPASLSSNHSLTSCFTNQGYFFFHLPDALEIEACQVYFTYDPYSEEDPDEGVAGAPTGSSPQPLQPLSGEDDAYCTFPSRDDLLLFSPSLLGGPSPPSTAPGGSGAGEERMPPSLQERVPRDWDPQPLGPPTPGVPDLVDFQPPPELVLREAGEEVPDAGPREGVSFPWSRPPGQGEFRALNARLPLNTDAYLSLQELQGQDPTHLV

EC50 of STAT5 phosphorylation (pSTAT5) in purified splenic T cells of balb-c mice, ex vivo, serial dilutions [1]: 4.1 pM
Kd [2]: 2.5 nM
Substance: neoleukin-2/15 (Neo-2/15) WT (designed binder)
